In patent publication US20250263448A1 one finds factor by which the Kd exceeds the Kd of the native non-modified PmSLP and Kd data, which are given here for three substances.

The target of test [1] is a native host protein. The test can be described thus: Kd determination, method not stated; reference wild type PmSLP-1 (SEQ ID NO 2).
Test [2] has as its target a native host protein. The experiment in a line: Kd determination, method not stated.

On to “modified PmSLP-1 having SEQ. ID NO: 67 (E240A mutation)”, for which, in the test with a native host protein [1], the factor by which the Kd exceeds the Kd of the native non-modified PmSLP was above 500 fold. In the test with a native host protein [2], this substance showed a Kd below 2000 nM.
Take “wild type PmSLP-1 protein (SEQ. ID NO: 2)”: in the test with a native host protein [2], the Kd stood at 30 nM.
The substance “modified PmSLP-1 having SEQ. ID NO: 65 (V214D mutation)” showed a factor by which the Kd exceeds the Kd of the native non-modified PmSLP in the test with a native host protein [1] above 500 fold. Further, the Kd in the test with a native host protein [2] is below 2000 nM.
